What was measured:
[1] = target: T1, recombinant protein human Dsg3-His (human, UniProt P32926 50-615); assay: ELISA on recombinant human Dsg3-His
T1 construct: extracellular domain; Baculovirus product; also called recombinant human Dsg3; not shown: C-terminal His tag
T1 sequence (looked up): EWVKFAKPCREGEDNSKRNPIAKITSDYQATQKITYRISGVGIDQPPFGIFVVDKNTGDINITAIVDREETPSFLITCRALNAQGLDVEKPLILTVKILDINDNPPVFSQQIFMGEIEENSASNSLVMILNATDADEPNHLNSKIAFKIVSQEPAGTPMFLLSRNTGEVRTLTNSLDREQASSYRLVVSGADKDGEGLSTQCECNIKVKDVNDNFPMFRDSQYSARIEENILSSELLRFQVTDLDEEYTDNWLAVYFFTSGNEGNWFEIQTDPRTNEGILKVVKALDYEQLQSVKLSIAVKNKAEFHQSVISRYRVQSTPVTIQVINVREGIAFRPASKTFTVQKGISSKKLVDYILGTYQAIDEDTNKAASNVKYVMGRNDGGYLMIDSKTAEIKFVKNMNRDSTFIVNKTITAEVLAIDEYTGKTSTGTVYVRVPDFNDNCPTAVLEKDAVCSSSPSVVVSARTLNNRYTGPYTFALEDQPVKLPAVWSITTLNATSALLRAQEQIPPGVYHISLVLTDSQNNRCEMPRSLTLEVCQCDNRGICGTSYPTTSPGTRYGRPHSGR
Text: The baculovirus vectors, pEVmod-Dsg3-His and pEVmod-Dsg1-His, pEVmod-mouse Dsg3-His and pEVmod-mouse Dsg1 -His, that were constructed according to the method as described previously (J. Immunol. 159, 2010-2017, 1997) were used. These recombinant baculoviruses were infected to insect cells, High Five (Invitrogen Corporation), then the recombinant protein human Dsg3-His and Dsg1-His, recombinant protein mouse Dsg3-His and Dsg1-His were collected from the culture media, respectively. In addition, purification of these recombinant proteins was conducted using Ni-NTA column. These purified recombinant proteins were coated on ELISA (Enzyme Linked Immunosorbent Assay) plates, respectively, 50 μl each of the culture supernatant of the anti-Dsg3 monoclonal antibody-producing hybridoma was added to each well, and ELISA was practiced according to the method as previously described (J Clin Invest 105, 625-631, 2000). PV mouse model 1 serum with moderate degree of antibody titer was selected as a positive control, and 1 serum of normal mouse serum was selected as a negative control. Absorbance was determined at wavelength 450 nm (Bio-rad, Hercules, Calif. USA), and the index was shown by the following formula. Index={OD(specimen)−OD(negative control)}/{OD(positive control)−OD(negative control)}×100 A-2 (Living Cell Staining using Culture Mouse Keratinocyte PAM 212)

[2] = target: T2, inactivated Dsg3 protein having a pro-sequence (mouse, UniProt O35902 24-617, limits assumed); assay: immunoprecipitation and immunoblotting of recombinant Dsg3 (FIG. 7b)
T2 construct: the sentence on immunoblotting itself says only 'Dsg3'; also called protein with large molecular weight; not shown: His tag
T2 sequence (looked up): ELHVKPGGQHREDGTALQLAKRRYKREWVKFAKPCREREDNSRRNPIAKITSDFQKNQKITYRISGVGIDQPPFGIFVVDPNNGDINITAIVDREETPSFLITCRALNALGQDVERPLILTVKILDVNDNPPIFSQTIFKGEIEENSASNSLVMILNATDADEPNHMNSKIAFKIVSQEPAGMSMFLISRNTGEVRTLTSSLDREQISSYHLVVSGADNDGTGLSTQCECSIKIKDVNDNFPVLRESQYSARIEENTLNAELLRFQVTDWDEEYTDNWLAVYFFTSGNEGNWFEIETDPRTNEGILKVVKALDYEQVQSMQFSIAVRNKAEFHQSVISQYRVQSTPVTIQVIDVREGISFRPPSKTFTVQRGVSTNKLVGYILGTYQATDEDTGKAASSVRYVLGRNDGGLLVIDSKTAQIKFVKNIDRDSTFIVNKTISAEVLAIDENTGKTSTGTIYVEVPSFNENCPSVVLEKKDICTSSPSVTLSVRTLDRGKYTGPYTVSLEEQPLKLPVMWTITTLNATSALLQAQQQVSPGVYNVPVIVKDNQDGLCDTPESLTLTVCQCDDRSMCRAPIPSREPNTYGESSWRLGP
Method: Then 10 μl of protein G (Protein G sepharose 4 fast flow: Amersham Pharmacia Biotech, Buckinghamshire, England) was added and reacted overnight at […]. Centrifugation was conducted after the reaction, and 50 μl of SDS was added to the precipitate and boiled for 2 minutes. Each sample was subjected to electrophoresis with a 7.5% uniform gel plate for electrophoresis (multigel 7.5: Daiichi Pure Chemicals, Tokyo, Japan), transcribed to PVDF membrane, then blocked. Further, 100-fold diluted anti-6X histidine antibody (R&D systems, Inc. Minn., USA) was reacted for 1 hour at room temperature, washed (3 times) in TBS (Tris buffered saline), then 1000-fold diluted alkaline phosphatase-goat anti-mouse IgG (Zymed, San Francisco, Calif., USA) was reacted for 1 hour at room temperature, washed (3 times) in TBS, then developed.
To characterize the epitopes of monoclonal antibodes such as AK23 and the like, it was first determined whether the binding to Dsg3 of the antibodies is calcium-dependent or not. Recombinant mouse Dsg3-His was treated with or without EDTA, and then subjected to immunoprecipitation with the AK antibodies. EDTA treatment abolished the reactivity of AK19 and AK23 antibodies, but not the reactivity of the other AK antibodies (Table 3, FIG. 7a). […]

- binding result [1]: binds
- binding result [2]: no binding
B1: anti-Dsg3 monoclonal antibody AK23 (antibody, mouse IgG1, V domains shown)
VH: QVQLQQSGTELVKPGASVKLSCKSSGYTFTSYWINWVKQRPGQGLEWIGNINPSNGGINYNEKFKSKATLTVDKSSSTAYMQLKSLTSEDSAVYYCARGGYDGYPWGQGTTVTVS
VL: DIQMTQSPKFLLVSAGDRVTITCKASQSVSYDVAWYQQKPGQSPKLLISYASNRYTGVPDRFTGSGYGSDFTFTISTVQTEDLAVYFCQQDYSSPWTFGGGTKLELKR
notes: Mouse IgG1 kappa hybridoma antibody
